Paper PMC6787021

How the values were obtained:
[1] = target: TbMscL A85C, spin-labeled with MTSSL (Mycobacterium tuberculosis) (UniProt P9WJN5); test: SEC
[2] = target: TbMscL E102C, spin-labeled with MTSSL (Mycobacterium tuberculosis) (UniProt P9WJN5); test: SEC; samples thawed after PELDOR measurements and run over SEC
[3] = target: TbMscL E102C, spin-labeled with MTSSL (Mycobacterium tuberculosis) (UniProt P9WJN5); test: SEC
[4] = target: TbMscL F5C, spin-labeled with MTSSL (Mycobacterium tuberculosis) (UniProt P9WJN5); test: SEC
[5] = target: TbMscL F34C, spin-labeled with MTSSL (Mycobacterium tuberculosis) (UniProt P9WJN5); test: SEC
[6] = target: TbMscL F79C, spin-labeled with MTSSL (Mycobacterium tuberculosis) (UniProt P9WJN5); test: SEC
[7] = target: TbMscL F84C, spin-labeled with MTSSL (Mycobacterium tuberculosis) (UniProt P9WJN5); test: SEC
[8] = target: TbMscL F88C, spin-labeled with MTSSL (Mycobacterium tuberculosis) (UniProt P9WJN5); test: SEC
[9] = target: TbMscL I23C, spin-labeled with MTSSL (Mycobacterium tuberculosis) (UniProt P9WJN5); test: SEC
[10] = target: TbMscL K99C, spin-labeled with MTSSL (Mycobacterium tuberculosis) (UniProt P9WJN5); test: SEC
[11] = target: TbMscL K100C, spin-labeled with MTSSL (Mycobacterium tuberculosis) (UniProt P9WJN5); test: SEC
[12] = target: TbMscL K100R1-F88W (Mycobacterium tuberculosis) (UniProt P9WJN5); test: SEC
[13] = target: TbMscL K100R1-L89W (Mycobacterium tuberculosis) (UniProt P9WJN5); test: SEC
[14] = target: TbMscL L2C, spin-labeled with MTSSL (Mycobacterium tuberculosis) (UniProt P9WJN5); test: SEC
[15] = target: TbMscL L42C, spin-labeled with MTSSL (Mycobacterium tuberculosis) (UniProt P9WJN5); test: SEC
[16] = target: TbMscL L72C, spin-labeled with MTSSL (Mycobacterium tuberculosis) (UniProt P9WJN5); test: SEC
[17] = target: TbMscL L72R1-L89W (Mycobacterium tuberculosis) (UniProt P9WJN5); test: SEC; samples thawed after PELDOR measurements and run over SEC
[18] = target: TbMscL L72R1-L89W (Mycobacterium tuberculosis) (UniProt P9WJN5); test: SEC
[19] = target: TbMscL L73C, spin-labeled with MTSSL (Mycobacterium tuberculosis) (UniProt P9WJN5); test: SEC
[20] = target: TbMscL L73R1-L89W (Mycobacterium tuberculosis) (UniProt P9WJN5); test: SEC
[21] = target: TbMscL L89C, spin-labeled with MTSSL (Mycobacterium tuberculosis) (UniProt P9WJN5); test: SEC
[22] = target: TbMscL N70C, spin-labeled with MTSSL (Mycobacterium tuberculosis) (UniProt P9WJN5); test: SEC
[23] = target: TbMscL N70R1-L89W (Mycobacterium tuberculosis) (UniProt P9WJN5); test: SEC
[24] = target: TbMscL R98C, spin-labeled with MTSSL (Mycobacterium tuberculosis) (UniProt P9WJN5); test: SEC
[25] = target: TbMscL V48C, spin-labeled with MTSSL (Mycobacterium tuberculosis) (UniProt P9WJN5); test: SEC
[26] = target: TbMscL V112C, spin-labeled with MTSSL (Mycobacterium tuberculosis) (UniProt P9WJN5); test: SEC
[27] = target: TbMscL Y87C, spin-labeled with MTSSL (Mycobacterium tuberculosis) (UniProt P9WJN5); test: SEC

With “TbMscL A85C, spin-labeled with MTSSL (from UniProt P9WJN5 1-151) (natural protein)” the stoichiometry N [1] was 5.

In the case of “TbMscL E102C, spin-labeled with MTSSL (from UniProt P9WJN5 1-151) (natural protein)”, the stoichiometry N [2] was 5 and the stoichiometry N [3] was 5.

In the case of “TbMscL F5C, spin-labeled with MTSSL (from UniProt P9WJN5 1-151) (natural protein)”, the stoichiometry N [4] was 5.

Work on “TbMscL F34C, spin-labeled with MTSSL (from UniProt P9WJN5 1-151) (natural protein)” yielded a stoichiometry N [5] of 5.

“TbMscL F79C, spin-labeled with MTSSL (from UniProt P9WJN5 1-151) (natural protein)” gave a stoichiometry N [6] of 5.

Work on “TbMscL F84C, spin-labeled with MTSSL (from UniProt P9WJN5 1-151) (natural protein)” yielded a stoichiometry N [7] of 5.

“TbMscL F88C, spin-labeled with MTSSL (from UniProt P9WJN5 1-151) (natural protein)” was tested, and the stoichiometry N [8] was 5.

With “TbMscL I23C, spin-labeled with MTSSL (from UniProt P9WJN5 1-151) (natural protein)” the stoichiometry N [9] was 5.

“TbMscL K99C, spin-labeled with MTSSL (from UniProt P9WJN5 1-151) (natural protein)” gave a stoichiometry N [10] of 5.

“TbMscL K100C, spin-labeled with MTSSL (from UniProt P9WJN5 1-151) (natural protein)” gave a stoichiometry N [11] of 5.

In the case of “TbMscL K100R1-F88W (from UniProt P9WJN5 1-151) (natural protein)”, the stoichiometry N [12] was 5.

For “TbMscL K100R1-L89W (from UniProt P9WJN5 1-151) (natural protein)”, the stoichiometry N [13] was 5.

For “TbMscL L2C, spin-labeled with MTSSL (from UniProt P9WJN5 1-151) (natural protein)”, the stoichiometry N [14] was 5.

With “TbMscL L42C, spin-labeled with MTSSL (from UniProt P9WJN5 1-151) (natural protein)” the stoichiometry N [15] was 5.

For “TbMscL L72C, spin-labeled with MTSSL (from UniProt P9WJN5 1-151) (natural protein)”, the stoichiometry N [16] was 5.

Substance “TbMscL L72R1-L89W (from UniProt P9WJN5 1-151) (natural protein)” has a stoichiometry N [17] of 5 and a stoichiometry N [18] of 5.

“TbMscL L73C, spin-labeled with MTSSL (from UniProt P9WJN5 1-151) (natural protein)” gave a stoichiometry N [19] of 5.

“TbMscL L73R1-L89W (from UniProt P9WJN5 1-151) (natural protein)” showed a stoichiometry N [20] of 5.

For “TbMscL L89C, spin-labeled with MTSSL (from UniProt P9WJN5 1-151) (natural protein)”, the stoichiometry N [21] was 5.

“TbMscL N70C, spin-labeled with MTSSL (from UniProt P9WJN5 1-151) (natural protein)” was tested, and the stoichiometry N [22] was 5.

Substance “TbMscL N70R1-L89W (from UniProt P9WJN5 1-151) (natural protein)” has a stoichiometry N [23] of 5.

For “TbMscL R98C, spin-labeled with MTSSL (from UniProt P9WJN5 1-151) (natural protein)”, the stoichiometry N [24] was 5.

With “TbMscL V48C, spin-labeled with MTSSL (from UniProt P9WJN5 1-151) (natural protein)” the stoichiometry N [25] was 5.

“TbMscL V112C, spin-labeled with MTSSL (from UniProt P9WJN5 1-151) (natural protein)” showed a stoichiometry N [26] of 5.

“TbMscL Y87C, spin-labeled with MTSSL (from UniProt P9WJN5 1-151) (natural protein)” showed a stoichiometry N [27] of 5.
